Results as given in patent US20260098866A1 (REMEGEN, published 2026).

B1: antibody 12C9F3 (antibody, mouse IgG1, kappa, V domains shown)
VH: EVQLQQSGPELVKPGASVKISCKTSGYTFTEYAMHWVKQSHGKSLEWIGGINPNHGGTSNNQKFKGKATLTVDKSSSTAYMDFRSLTSEDSAVYYCARWGTDPFFAYWGQGTLVTVSA
VL: DIVMTQSHKFMSTSVGDRVSITCKASQDVSTAVAWYQQKPGQSPKLLIYWASTRHTGVPDRFTGSGSGTDYTLTITSVQAEDLTLYYCHQHYAPPWTFGGGTKLEIKR
notes: Mouse hybridoma antibody, purified from the culture supernatant of cell line 12C9F3-1; The printed chains seem to include a leader peptide, but no cleavage site is stated; also called 12C9F3-1 (hybridoma cell line / culture supernatant)
B2: antibody 1B11D2 (antibody, mouse IgG1, kappa, V domains shown)
VH: EVQLQQSGPELVKPGASVKISCKTSGYTFTEFSMHWVQQSHGKSLEWIGGINPNHGGSSYNQKFKGKATLTVDKSSSTAYMELRSLTSEDSAVYYCARRGDYYGNLYYAMDYWGQGTSVTVSS
VL: SIVMTQTPKFLLVSVGDSITITCKASQSVSNDVVWYQQKPGQSPKLLIYYASNRYTGVPDRFTGSGYGTDFTFTITTVQAEDLAVYFCQQDYSSPWAFGGGTKLEIKR
notes: Mouse hybridoma antibody, purified from the culture supernatant of cell line 1B11D2-1; The printed heavy and light chains start with what looks like a leader peptide (MGWSW..., MKSQT...); also called 1B11D2-1 (hybridoma cell line / culture supernatant); TACI antibody (1B11D2)
B3: antibody 7G12F8 (antibody, mouse IgG1, kappa, V domains shown)
VH: EVQLQQSGPELVRPGASVKKSCKTSGYTFTAYALHWVKQSHGTSLEWIGGINPNHGGVSYNQKFKDKATLTVDKSSSTAYMELRSLTSEDSAVYYCARFRWDLYYGMDYWGQGTSVIVAS
VL: QIVLTQSPAIISVSSGEKVTMPCSDNSNMIYMYWNLWKPGTSPKRWIYDTSRLASGVPARFSGSGFGTSFSLTVSSMEAEDAATYYCHQRSIYSWTFGGGTKLEIKR
notes: Mouse hybridoma antibody, purified from the culture supernatant of cell line 7G12F8-1; The printed chains seem to include a leader peptide, but no cleavage site is stated; also called 7G12F8-1 (hybridoma cell line / culture supernatant)

Key:
telitacicept [1] = biological target: T1, telitacicept; assay: competition ELISA; BLyS coated; 30 ng/ml telitacicept pre-incubated with 1000-fold diluted supernatant; telitacicept bound to BLyS read with anti-human IgG Fc-HRP
T1 construct: TACI-Fc fusion protein drug; also called Tai ai; TACI-Fc fusion protein
T1 chain: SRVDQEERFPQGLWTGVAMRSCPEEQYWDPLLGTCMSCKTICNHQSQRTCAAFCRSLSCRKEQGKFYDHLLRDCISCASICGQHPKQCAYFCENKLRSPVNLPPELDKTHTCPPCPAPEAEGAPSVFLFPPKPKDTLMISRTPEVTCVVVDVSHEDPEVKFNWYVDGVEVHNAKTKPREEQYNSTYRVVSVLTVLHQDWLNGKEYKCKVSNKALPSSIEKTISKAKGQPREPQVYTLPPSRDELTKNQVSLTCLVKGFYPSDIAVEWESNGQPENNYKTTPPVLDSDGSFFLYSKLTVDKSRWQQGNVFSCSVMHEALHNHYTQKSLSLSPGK
Protocol: (§1) The hybridoma cells were cultured, and the supernatants were used for enzyme-linked immunosorbent assay (ELISA). BLyS (R&D Systems) was coated on a 96-well microplate and incubated at 4° C. overnight. The plate was blocked with 300 μl of 3% BSA-PBST per well and incubated at 37° C. for 3 h. The supernatants were diluted at ratios of 10-fold, 100-fold and 1000-fold with PBST and separately incubated with 30 ng/ml telitacicept for a given period. These mixtures were then added to the 96-well plate at 100 μl per well and incubated at 37° C. for 1 h. Goat anti-human IgG Fc-HRP (1:5000 dilution) was added at 100 μl per well and incubated at 37° C. for 1 h. 100 μL of substrate per well was added for color development, and the absorbance was read at 450 nm and 655 nm. Antibodies with high activity were screened based on the difference in absorbance between 450 nm and 655 nm, respectively.

telitacicept [2] = biological target: T1, telitacicept; assay: competition ELISA; BLyS coated; 30 ng/ml telitacicept pre-incubated with 10-fold diluted supernatant; telitacicept bound to BLyS read with anti-human IgG Fc-HRP
Protocol: as §1

telitacicept [3] = biological target: T1, telitacicept; assay: competition ELISA; BLyS coated; 30 ng/ml telitacicept pre-incubated with 100-fold diluted supernatant; telitacicept bound to BLyS read with anti-human IgG Fc-HRP
Protocol: as §1

telitacicept [4] = biological target: T1, telitacicept; assay: BLI (Octet RH16); biotinylated 1B11D2 on SA biosensors, telitacicept as analyte; kinetic fit
Protocol: An Octet RH16 molecular interaction analyzer (Sartorius) was used. An appropriate amount of antibody 1B11D2 reacted with EZ-Link Sulfo-NHS-LC-LC-Biotin ([…]) at room temperature for 30 min followed by centrifugation with a Zeba spin desalting column to collect the biotinylated antibody 1B11D2.
The biotinylated antibody 1B11D2 was immobilized on Octet SA Biosensors ([…]) and telitacicept at various concentrations was used as the analyte. The detection curve was fitted by kinetic analysis to obtain the results.

Absorbance (450 nm - 655 nm) (telitacicept [1])	Absorbance (450 nm - 655 nm) (telitacicept [2])	Absorbance (450 nm - 655 nm) (telitacicept [3])	Kd (telitacicept [4]) [nM]	koff (telitacicept [4]) [s⁻¹]	kon (telitacicept [4]) [M⁻¹ s⁻¹]	Binder
0.443	0.082	0.242	–	–	–	B1
0.454	0.016	0.141	0.325	0.000105	323000	B2
0.448	0.057	0.215	–	–	–	B3
